From US20030203373A1 (priority 2002, published 2003)

Target: T1, angiotensin-converting-enzyme derived from pig kidney (pig) (UniProt F1RRW5)
T1 sequence (looked up): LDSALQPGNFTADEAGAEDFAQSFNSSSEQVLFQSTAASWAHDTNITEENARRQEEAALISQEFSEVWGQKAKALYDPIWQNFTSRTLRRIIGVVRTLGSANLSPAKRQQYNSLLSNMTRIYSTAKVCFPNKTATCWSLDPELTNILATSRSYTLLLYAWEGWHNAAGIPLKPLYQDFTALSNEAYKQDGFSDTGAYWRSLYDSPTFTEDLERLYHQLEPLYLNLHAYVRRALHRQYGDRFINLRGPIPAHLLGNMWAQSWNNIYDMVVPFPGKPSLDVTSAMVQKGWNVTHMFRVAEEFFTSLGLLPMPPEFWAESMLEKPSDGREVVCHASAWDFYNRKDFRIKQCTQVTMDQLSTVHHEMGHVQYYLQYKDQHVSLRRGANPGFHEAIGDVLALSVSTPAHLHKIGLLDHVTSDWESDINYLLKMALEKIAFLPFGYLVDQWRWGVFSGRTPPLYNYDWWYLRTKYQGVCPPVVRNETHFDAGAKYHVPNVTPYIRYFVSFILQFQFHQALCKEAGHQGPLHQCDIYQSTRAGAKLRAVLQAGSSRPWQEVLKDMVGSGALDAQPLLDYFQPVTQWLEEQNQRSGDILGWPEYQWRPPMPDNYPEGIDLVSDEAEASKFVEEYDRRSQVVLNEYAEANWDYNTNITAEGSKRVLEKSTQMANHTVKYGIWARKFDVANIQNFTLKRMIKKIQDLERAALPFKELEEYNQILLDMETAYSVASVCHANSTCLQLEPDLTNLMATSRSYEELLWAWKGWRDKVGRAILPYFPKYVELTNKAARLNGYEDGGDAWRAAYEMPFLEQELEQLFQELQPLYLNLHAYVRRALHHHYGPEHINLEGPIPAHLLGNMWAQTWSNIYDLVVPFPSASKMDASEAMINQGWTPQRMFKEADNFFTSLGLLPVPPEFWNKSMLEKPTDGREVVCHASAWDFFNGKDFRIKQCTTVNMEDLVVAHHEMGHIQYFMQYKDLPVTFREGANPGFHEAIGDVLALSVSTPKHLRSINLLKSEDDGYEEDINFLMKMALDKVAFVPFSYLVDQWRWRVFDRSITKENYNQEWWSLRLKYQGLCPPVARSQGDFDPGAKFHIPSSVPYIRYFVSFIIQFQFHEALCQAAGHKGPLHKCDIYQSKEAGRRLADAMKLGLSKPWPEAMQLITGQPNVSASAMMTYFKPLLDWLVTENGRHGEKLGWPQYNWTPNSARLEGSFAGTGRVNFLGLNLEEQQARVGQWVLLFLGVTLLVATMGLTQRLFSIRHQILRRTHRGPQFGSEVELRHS
Assay: cell-based or functional assay

**Q.** Which % inhibition, inhibitor 0.0097 µM, row A does the source give for BPP9a from Bothrops jararaca (peptide) here?
**A.** The % inhibition, inhibitor 0.0097 µM, row A was 18%.

**Q.** And the % inhibition, inhibitor 0.0097 µM, row B?
**A.** Its % inhibition, inhibitor 0.0097 µM, row B is 17.3%.

**Q.** What about the % inhibition, inhibitor 0.0097 µM, row C of the same substance?
**A.** Its % inhibition, inhibitor 0.0097 µM, row C is 14.8%.

**Q.** And the % inhibition, inhibitor 0.0097 µM, row D?
**A.** Its % inhibition, inhibitor 0.0097 µM, row D is 7.86%.

**Q.** What about the % inhibition, inhibitor 0.0195 µM, row C of the same substance?
**A.** The % inhibition, inhibitor 0.0195 µM, row C was 23%.

**Q.** What about the % inhibition, inhibitor 0.078 µM, row B of the same substance?
**A.** The % inhibition, inhibitor 0.078 µM, row B was 43.5%.

**Q.** What about the % inhibition, inhibitor 0.15625 µM, row B of the same substance?
**A.** The % inhibition, inhibitor 0.15625 µM, row B was 63.3%.

**Q.** What about the % inhibition, inhibitor 0.3125 µM, row A of the same substance?
**A.** Its % inhibition, inhibitor 0.3125 µM, row A is 84%.

**Q.** What about the % inhibition, inhibitor 0.3125 µM, row B of the same substance?
**A.** Its % inhibition, inhibitor 0.3125 µM, row B is 83.8%.

**Q.** And the % inhibition, inhibitor 0.625 µM, row A?
**A.** The % inhibition, inhibitor 0.625 µM, row A was 94%.

**Q.** What about the % inhibition, inhibitor 0.625 µM, row B of the same substance?
**A.** Its % inhibition, inhibitor 0.625 µM, row B is 93.5%.

**Q.** And the % inhibition, inhibitor 1.25 µM, row B?
**A.** The % inhibition, inhibitor 1.25 µM, row B was 97.3%.

**Q.** And the IC50, ACE inhibition?
**A.** Its IC50, ACE inhibition is 97 nM.

**Q.** And the IC50-value, ACE inhibition (hippuryl-histidyl-leucin substrate)?
**A.** The IC50-value, ACE inhibition (hippuryl-histidyl-leucin substrate) was 97 nM.

**Q.** What about the fluorescence, inhibitor 0.0097 µM, row A of the same substance?
**A.** Its fluorescence, inhibitor 0.0097 µM, row A is 704000.

**Q.** What about the fluorescence, inhibitor 0.0097 µM, row B of the same substance?
**A.** Its fluorescence, inhibitor 0.0097 µM, row B is 710000.

**Q.** And the fluorescence, inhibitor 0.0097 µM, row C?
**A.** Its fluorescence, inhibitor 0.0097 µM, row C is 732000.

**Q.** And the fluorescence, inhibitor 0.0097 µM, row D?
**A.** The fluorescence, inhibitor 0.0097 µM, row D was 791000.

**Q.** And the fluorescence, inhibitor 0.0195 µM, row A?
**A.** Its fluorescence, inhibitor 0.0195 µM, row A is 650000.

**Q.** And the fluorescence, inhibitor 0.0195 µM, row B?
**A.** Its fluorescence, inhibitor 0.0195 µM, row B is 652000.

**Q.** What about the fluorescence, inhibitor 0.0195 µM, row C of the same substance?
**A.** The fluorescence, inhibitor 0.0195 µM, row C was 662000.

**Q.** And the fluorescence, inhibitor 0.0195 µM, row D?
**A.** Its fluorescence, inhibitor 0.0195 µM, row D is 697000.

**Q.** And the fluorescence, inhibitor 0.039 µM, row A?
**A.** Its fluorescence, inhibitor 0.039 µM, row A is 629000.

**Q.** And the fluorescence, inhibitor 0.039 µM, row B?
**A.** The fluorescence, inhibitor 0.039 µM, row B was 556000.

**Q.** What about the fluorescence, inhibitor 0.039 µM, row C of the same substance?
**A.** Its fluorescence, inhibitor 0.039 µM, row C is 592000.

**Q.** And the fluorescence, inhibitor 0.039 µM, row D?
**A.** The fluorescence, inhibitor 0.039 µM, row D was 454000.

**Q.** And the fluorescence, inhibitor 0.078 µM, row A?
**A.** The fluorescence, inhibitor 0.078 µM, row A was 446000.

**Q.** And the fluorescence, inhibitor 0.078 µM, row B?
**A.** Its fluorescence, inhibitor 0.078 µM, row B is 487000.

**Q.** What about the fluorescence, inhibitor 0.078 µM, row C of the same substance?
**A.** Its fluorescence, inhibitor 0.078 µM, row C is 445000.

**Q.** What about the fluorescence, inhibitor 0.078 µM, row D of the same substance?
**A.** The fluorescence, inhibitor 0.078 µM, row D was 462000.

**Q.** What about the fluorescence, inhibitor 0.15625 µM, row A of the same substance?
**A.** The fluorescence, inhibitor 0.15625 µM, row A was 309000.

**Q.** And the fluorescence, inhibitor 0.15625 µM, row B?
**A.** Its fluorescence, inhibitor 0.15625 µM, row B is 318000.

**Q.** What about the fluorescence, inhibitor 0.15625 µM, row C of the same substance?
**A.** The fluorescence, inhibitor 0.15625 µM, row C was 311000.

**Q.** What about the fluorescence, inhibitor 0.15625 µM, row D of the same substance?
**A.** The fluorescence, inhibitor 0.15625 µM, row D was 262000.

**Q.** And the fluorescence, inhibitor 0.3125 µM, row A?
**A.** The fluorescence, inhibitor 0.3125 µM, row A was 142000.

**Q.** What about the fluorescence, inhibitor 0.3125 µM, row B of the same substance?
**A.** Its fluorescence, inhibitor 0.3125 µM, row B is 144000.

**Q.** And the fluorescence, inhibitor 0.3125 µM, row C?
**A.** Its fluorescence, inhibitor 0.3125 µM, row C is 148000.

**Q.** And the fluorescence, inhibitor 0.3125 µM, row D?
**A.** Its fluorescence, inhibitor 0.3125 µM, row D is 149000.

**Q.** And the fluorescence, inhibitor 0.625 µM, row A?
**A.** The fluorescence, inhibitor 0.625 µM, row A was 55600.

**Q.** And the fluorescence, inhibitor 0.625 µM, row B?
**A.** Its fluorescence, inhibitor 0.625 µM, row B is 60300.

**Q.** And the fluorescence, inhibitor 0.625 µM, row C?
**A.** Its fluorescence, inhibitor 0.625 µM, row C is 60900.

**Q.** And the fluorescence, inhibitor 0.625 µM, row D?
**A.** The fluorescence, inhibitor 0.625 µM, row D was 57500.

**Q.** And the fluorescence, inhibitor 1.25 µM, row A?
**A.** The fluorescence, inhibitor 1.25 µM, row A was 25800.

**Q.** And the fluorescence, inhibitor 1.25 µM, row B?
**A.** Its fluorescence, inhibitor 1.25 µM, row B is 27500.

**Q.** And the fluorescence, inhibitor 1.25 µM, row C?
**A.** Its fluorescence, inhibitor 1.25 µM, row C is 27000.

**Q.** What about the fluorescence, inhibitor 1.25 µM, row D of the same substance?
**A.** Its fluorescence, inhibitor 1.25 µM, row D is 27200.

**Q.** What about the fluorescence, inhibitor 2.5 µM, row A of the same substance?
**A.** Its fluorescence, inhibitor 2.5 µM, row A is 14000.

**Q.** And the fluorescence, inhibitor 2.5 µM, row B?
**A.** Its fluorescence, inhibitor 2.5 µM, row B is 13900.

**Q.** And the fluorescence, inhibitor 2.5 µM, row C?
**A.** Its fluorescence, inhibitor 2.5 µM, row C is 14100.

**Q.** And the fluorescence, inhibitor 2.5 µM, row D?
**A.** Its fluorescence, inhibitor 2.5 µM, row D is 15100.

**Q.** And the fluorescence, inhibitor 5 µM, row A?
**A.** Its fluorescence, inhibitor 5 µM, row A is 10600.

**Q.** And the fluorescence, inhibitor 5 µM, row B?
**A.** Its fluorescence, inhibitor 5 µM, row B is 9630.

**Q.** And the fluorescence, inhibitor 5 µM, row C?
**A.** Its fluorescence, inhibitor 5 µM, row C is 9630.

**Q.** What about the fluorescence, inhibitor 5 µM, row D of the same substance?
**A.** Its fluorescence, inhibitor 5 µM, row D is 9660.
